Data from the NTF2 design screens of Basanta et al. (2020).

Test: protease stability score; higher = more stable; yeast display proteolysis, trypsin and chymotrypsin;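 note: log10 excess protease needed over predicted unfolded state with 0 meaning unfolded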
For “EEHQQKLIEEVLKAMDSGDEDRIKELVDPNAEFHVGDKTWHGMQDWARHVREEVEQIDFTWVNMEIRVKNGTVIMKARFEETRDGQPRTQNVNLRARVHNGRLTSMENDQHG”, the protease stability score was 0.375. For “EEHQTKEWSKMLEVMTKGDKDKFRERADPNVRARVGDRTLHGWENVVRTELRRQHEISIDIHEMDVRSEGDKVVARYEFRQNQNGRPRRRDVTVTFRLHNGRLQEQHVQDTG”, the protease stability score was 0.148. With “EEHVKHIVDQLIKVLQHNDEKLWERLVDPNAEIRVGDKSIRGRERFSEEVRRQKHQARMQWKSVQVDVHGDKAVLHFSAEFQVNGQPADFDVTMHIQVHNGTVKRMFVQVPEKDVQRKTS” the protease stability score was 0.459. “EEHVLTRFNSNMSNNNFNHIRDMADENAKMRVGDQEYHGRDNIHRLLEELKTQADHIQVRDYNHRGEHVHVDVEMVINGQKLVARWHAEIKNGRIKEMVLQFTNEEQEKTVRKALR” showed a protease stability score of 0.302. Work on “EEHVMRIVTNQLEAIKHGDEDRVRDLADPNARFHVGDKSIHGMEKYANDLRSEMEHMQVEFNLQSVTVEGDKVVITFEAQFNQNGKPKNYREVFRVEAQGDKIKDYRQERKD” yielded a protease stability score of 0.001. Work on “EEKAEELVERFITAIETNDPDEVVNNIDPNARLRVGDKHVSGRDHQRQQVEEQERHMRVKYQHVRIDVTGDHARVHVVQVDNHNGKPRRFKYSASFVVQGDKIKHASQTTTE” yielded a protease stability score of -0.163. With “EEKATRIAHELLSAVERGDEDRAEENFDENAQFQVGDKDIHGREQMKHFVKTVKEQSRLDMHITDVQDRPGHANVKATAREDNNGNPNNIRITMRASVSNGRIQSMQINYTD” the protease stability score was -0.638. Work on “EEKIVDILERMVTALHTGDPDTVHENLDPNAHVVIGDKEFTGMDTMHRTLERQKKEIRIQINSYSVHAQGNKADIDIDMVNEHNGHPDRNRYRVDAKVHNGKIKQVRYEEVS” yielded a protease stability score of -0.38. “EEKLEEQVEELLKNLDTGDENRARQLADPNVRARVGDKEYHGMEQFIKDQMDQRRNARIEVKDLRSEHHGDKITVDLSYKAQHNGRPTTVQREVTFHAHNGKFRQMKIEQSG” gave a protease stability score of -0.521. Work on “EEKLRERIKKFIDIMQTGNPEELEKQADEDAHFEIGEKRVHGMDDYAKEVQRELEDAQVRINVDSVRASNGRVEAHATMSETRNGQPRTAELKLEAQFHNGRIKHVRLHKHQ” yielded a protease stability score of -0.059. “EEKNQEHAEQVFRAYKDGDPNQIQRLLDPNAHARIGDKQLHGREQAREIMHRLRRHLQMDLKLQDVKAEGDKLQLNARAKHDDNGRPNDVKITITFDLQNGRIKSMSVKMSG” showed a protease stability score of 0.022. “EEKNQHVAQQWLEMVQNGDPRKAKQQFDKDARVKIGDKELNGREEIVRQFEREQREMRVDIKDYKIDVNGDKVTVRLHVEVQSNGTPTTRDYVVHMQVHNGRVQMVIFRSDG” showed a protease stability score of 0.747. Work on “EEKNRKVFEEAMKAFQTNDKDQAERMFDENATVKIGDQEIHGNKQIREHIRTMEEHMRLEIKSIDLKVSNGRVHANITFVEEHNGEPKTLRLHVRAEVDNGTIESMQFNDDG” yielded a protease stability score of 0.159. In the case of “EEKQDTRLEEFVSAVLKGDEQEAVDLADPNADMHIGEWHVRGREQIRKFIDQLRKRIRVQVDEMHVDNQGENVTVRATFVLDHNGVPMEFEIEYRLVVDNGRLKSVHARVPEEVKNRRRR”, the protease stability score was 0.294. “EEKQKTHVERFIEILREGDPQKAREMADKDAKFVYGDKSVHGMDEFRRQVERRNKQIHIDLKVREVDVHGNNVKIIIDAQEDHNGNPDSFKADMEVVYHNGRIKSASMDKQT” showed a protease stability score of 0.074. Sequence “EENEVEKIMQVAHSGDFDSLVELADPNVTIKVGDKEWHGREHATEFFEKMKRHIDHVDVKSMSAQGDKITVRAHFNVNGDTLDFNLHIVISNGRIQSVKIQVTSHELRKTLTDQLG” has a protease stability score of 1.44. In the case of “EENNLELAHRVMENIQTNNPDEVVKQLDPNARIQVGDKVYHGREQARKMVEDLIDRLRVQIDSVDLEVQGDKAQLEFTQIEEHNGRPNSAKFIVDVTVHNGRVQNMEFREHK”, the protease stability score was 0.891. With “EEQAQENLENLIRAIEHGDHKTAKELMDPNVKFHYGDKQYHGRERVTDFIRTVHEQMDVEIESFDLKLENGRAKAKMTAVYDVNGKPVKISVTYVATVHNGKVKHLQRRVDPSQQREVKG” the protease stability score was 1.02. In the case of “EEQAVEVMNRYIRALQTGSKQDLRDNMDPNVKAIYGDSVIHGREEIARHLVKTMKDIRVENDVRDMRFDGDKIELRAKWVFEHDGRPRTNKYVVHAVAHDGKIKHINLQEDQ”, the protease stability score was -0.058. Sequence “EEQLKHRLRTYIEALQTGDEKKMVEMVDPNAHIRVGDSTIHGREELRKWVQHLQREIRFQVKIRSIDVSGEHLDVKAEVRYDFNGQPVRDTLNISAEASNGTFTDLRLHIDEDVLRKIKS” has a protease stability score of 1.16.
